# From the RNAGym collection of RNA variant scans (doi:10.7554/elife.80360)
# B1: HDV Ribozyme (parent)
# chain: GGCCGGCAUGGUCCCAGCCUCCUCGCUGGCGCCGGCUGGGCAACAUUCCGAGGGGACCGUCCCCUCGGUAAUGGCGAAUGGGACCCA
# Variants of: B1
# Assay: self-cleavage, relative activity (ratio to wild type); higher = more cleavage; co-transcriptional
row,Variant,self-cleavage
1,GGCCGGCAUGCUCCCAGCCUCCUCGCUGGCGCCGGCUGGGCAACAUUCCGAGGGGACCGUCCCCUCGGUAAUGUCGAAUGGGACCCA [G11C G74U],0.0963
2,GGCCGGCAUGCUCCCAGCCUCCUCGCUGGCGCCGGCUGGGCAACAUUCCGAGGGGACCGUCCCCUCGGUAAUGCCGAAUGGGACCCA [G11C G74C],0
3,GGCCGGCAUGCUCCCAGCCUCCUCGCUGGCGCCGGCUGGGCAACAUUCCGAGGCGACCGUCCCCUCGGUAAUGGCGAAUGGGACCCA [G11C G54C],0.291
4,GGCCGGCAUGCUCCCAGCCUCCUCGCUGGCGCCGGCUGGGCAACAUUCCGAGGAGACCGUCCCCUCGGUAAUGGCGAAUGGGACCCA [G11C G54A],0.277
5,GGCCGGCAUGCUCCCAGCCUCCUCGCUGGCGCCGGCUGGACAACAUUCCGAGGGGACCGUCCCCUCGGUAAUGGCGAAUGGGACCCA [G11C G40A],0.208
6,GGCCGGCAUGCUCCCAGCCUCCUCGCUGGCGCCGGCUGGCCAACAUUCCGAGGGGACCGUCCCCUCGGUAAUGGCGAAUGGGACCCA [G11C G40C],0.0475
7,GGCCGGCAUGCUCCCAGCCUCCUCGCUGGCGCCGGCUGGGCAACAUUCCCAGGGGACCGUCCCCUCGGUAAUGGCGAAUGGGACCCA [G11C G50C],0.365
8,GGCCGGCAUGCUCCCAGCCUCCUCGCUGGCGCCGGCUGGGCAACAUUCCGAGGGGACCGUCCCCGCGGUAAUGGCGAAUGGGACCCA [G11C U65G],0
9,GGCCGGCAUGCUCCCAGCCUCCUCGCUGGCGCCGGCUGGGCAACAUUCCGAGGGGACCGUCCCCACGGUAAUGGCGAAUGGGACCCA [G11C U65A],0.293
10,GGCCGGCAUGCUCCCAGCCUCCUCGCUGGCGCCGGCUGGGCAACAUUCCGAGGGGACCGUCCCCUCGGUAAUCGCGAAUGGGACCCA [G11C G73C],0.0346
11,GGCCGGCAUGCUCCCAGCCUCCUCGCUGGCGCCGGCUCGGCAACAUUCCGAGGGGACCGUCCCCUCGGUAAUGGCGAAUGGGACCCA [G11C G38C],0.0755
12,GGCCGGCAUGCUCCCAGCCUCCUCGCUGGCGCCGGCUGGGCAACAUUCCGAGGGGACCGGCCCCUCGGUAAUGGCGAAUGGGACCCA [G11C U60G],0.256
13,GGCCGGCAUGCUCCCAGCCUCCUCGCUGGCGCCGGCUGGGCAACAUUCCGAGGGGACCGACCCCUCGGUAAUGGCGAAUGGGACCCA [G11C U60A],0.0831
14,GGCCGGCAUGCUCCCAGCCUCCUCGCUGGCGCCGGCUGGGCAACAUUCCGAGGGGACCGCCCCCUCGGUAAUGGCGAAUGGGACCCA [G11C U60C],0.511
15,GGCCGGCAUGCUCCCAGCCUCCUCGCUGGCGCCGGCUGGGCAACAAUCCGAGGGGACCGUCCCCUCGGUAAUGGCGAAUGGGACCCA [G11C U46A],0.115
16,GGCCGGCAUGCUCCCAGCCUCCUCGCUGGCGCCGGCUGGGCAACACUCCGAGGGGACCGUCCCCUCGGUAAUGGCGAAUGGGACCCA [G11C U46C],0.123

row,Variant,self-cleavage
1,GGCCGGCAUGCUCCCAGCCUCCUCGCUGGCGCCGGCUGGGCAACAUUCCGAGGGGACCGUCCCCUCGGAAAUGGCGAAUGGGACCCA [G11C U69A],0.166
2,GGCCGGCAUGUUCCCAGCCUCCUCGCUGGCGCCGGCUGGGCGACAUUCCGAGGGGACCGUCCCCUCGGUAAUGGCGAAUGGGACCCA [G11U A42G],0.0386
3,GGCCGGCAUGUUCCCAGCCUCCUCGCUGGCGCCGGCUGGGCCACAUUCCGAGGGGACCGUCCCCUCGGUAAUGGCGAAUGGGACCCA [G11U A42C],0.0308
4,GGCCGGCAUGUUCCCAGCCUCCUCGCUGGCGCCGGCUGGGCAACAUUCCGAGGGGACCGUCCCCUCGGUUAUGGCGAAUGGGACCCA [G11U A70U],0.228
5,GGCCGGCAUGUUCCCAGCCUCCUCGCUGGCGCCGGCUGGGCAACAUUCCGAGGGGACCGUCCCCUCGGUGAUGGCGAAUGGGACCCA [G11U A70G],0.201
6,GGCCGGCAUGCUCCCAGCCUCCUCGCUGGCGCCGGCGGGGCAACAUUCCGAGGGGACCGUCCCCUCGGUAAUGGCGAAUGGGACCCA [G11C U37G],0.101
7,GGCCGGCAUGCUCCCAGCCUCCUCGCUGGCGCCGGCUGGGCAACAUUCCGAGGGGACCGUCCCCUCGGUAAUGGCGAAUGGCACCCA [G11C G82C],0.287
8,GGCCGGCAUGCUCCCAGCCUCCUCGCUGGCGCCGGCUGGGCAACAUUCCGAGGGGACCGUCCCCUCGGUAAUGGCGAAUGGUACCCA [G11C G82U],0.104
9,GGCCGGCAUGCUCCCAGCCACCUCGCUGGCGCCGGCUGGGCAACAUUCCGAGGGGACCGUCCCCUCGGUAAUGGCGAAUGGGACCCA [G11C U20A],0.0978
10,GGCCGGCAUGCUCCCAGCCGCCUCGCUGGCGCCGGCUGGGCAACAUUCCGAGGGGACCGUCCCCUCGGUAAUGGCGAAUGGGACCCA [G11C U20G],0
11,GGCCGGCAUGCUCCCAGCCUCCUCGCUGGCGCCGGCUGGGCAACAUUCCGAGGGCACCGUCCCCUCGGUAAUGGCGAAUGGGACCCA [G11C G55C],0.228
12,GGCCGGCAUGCUCCCAGCCUCCUCGCUGGCGCCGGCUGGGCAACAUUCCGAGGGUACCGUCCCCUCGGUAAUGGCGAAUGGGACCCA [G11C G55U],0.305
13,GGCCGGCAUGCCCCCAGCCUCCUCGCUGGCGCCGGCUGGGCAACAUUCCGAGGGGACCGUCCCCUCGGUAAUGGCGAAUGGGACCCA [G11C U12C],0.145
14,GGCCGGCAUGCACCCAGCCUCCUCGCUGGCGCCGGCUGGGCAACAUUCCGAGGGGACCGUCCCCUCGGUAAUGGCGAAUGGGACCCA [G11C U12A],0
15,GGCCGGCAUGCGCCCAGCCUCCUCGCUGGCGCCGGCUGGGCAACAUUCCGAGGGGACCGUCCCCUCGGUAAUGGCGAAUGGGACCCA [G11C U12G],0.123
16,GGCCGGCAUGCUCCCAGCCUCCUCGCUGGCGCCGGCUGGGCAACAUUCCGAGGGGACCCUCCCCUCGGUAAUGGCGAAUGGGACCCA [G11C G59C],0.415
